How the values were obtained:
Assay in all cases: SPR, mAb captured, C2 mutant analyte;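 note: Anti-C2 mAbs captured on goat anti-human IgG Biacore CM5 chips, alanine or serine C2 surface mutants flowed over at 37 °C, double-referenced sensorgrams fitted to a 1:1 binding model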
human C2 V465A = biological target: T1, human C2 V465A (human, UniProt P06681 21-752)
T1 sequence: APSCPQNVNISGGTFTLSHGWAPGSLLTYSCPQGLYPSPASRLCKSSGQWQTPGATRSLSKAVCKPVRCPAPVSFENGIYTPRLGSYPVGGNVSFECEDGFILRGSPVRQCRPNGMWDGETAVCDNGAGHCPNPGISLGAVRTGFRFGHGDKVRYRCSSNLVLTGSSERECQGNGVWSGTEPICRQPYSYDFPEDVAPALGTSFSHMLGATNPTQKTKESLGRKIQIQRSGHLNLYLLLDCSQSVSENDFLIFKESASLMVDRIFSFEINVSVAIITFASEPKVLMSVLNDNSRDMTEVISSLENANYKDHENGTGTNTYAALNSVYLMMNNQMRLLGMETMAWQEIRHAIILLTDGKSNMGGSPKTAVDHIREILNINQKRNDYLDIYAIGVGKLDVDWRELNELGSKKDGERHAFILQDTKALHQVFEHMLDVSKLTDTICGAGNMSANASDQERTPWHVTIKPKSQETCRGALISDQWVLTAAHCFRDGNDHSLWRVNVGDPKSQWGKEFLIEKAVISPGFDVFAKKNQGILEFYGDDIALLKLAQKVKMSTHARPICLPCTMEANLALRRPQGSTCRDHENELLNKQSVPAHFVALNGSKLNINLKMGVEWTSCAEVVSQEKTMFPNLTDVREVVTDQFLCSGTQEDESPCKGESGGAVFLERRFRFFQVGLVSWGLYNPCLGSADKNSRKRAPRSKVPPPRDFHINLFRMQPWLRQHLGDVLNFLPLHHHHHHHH

human C2 R688A = biological target: T2, human C2 R688A (human, UniProt P06681 21-752)
T2 sequence: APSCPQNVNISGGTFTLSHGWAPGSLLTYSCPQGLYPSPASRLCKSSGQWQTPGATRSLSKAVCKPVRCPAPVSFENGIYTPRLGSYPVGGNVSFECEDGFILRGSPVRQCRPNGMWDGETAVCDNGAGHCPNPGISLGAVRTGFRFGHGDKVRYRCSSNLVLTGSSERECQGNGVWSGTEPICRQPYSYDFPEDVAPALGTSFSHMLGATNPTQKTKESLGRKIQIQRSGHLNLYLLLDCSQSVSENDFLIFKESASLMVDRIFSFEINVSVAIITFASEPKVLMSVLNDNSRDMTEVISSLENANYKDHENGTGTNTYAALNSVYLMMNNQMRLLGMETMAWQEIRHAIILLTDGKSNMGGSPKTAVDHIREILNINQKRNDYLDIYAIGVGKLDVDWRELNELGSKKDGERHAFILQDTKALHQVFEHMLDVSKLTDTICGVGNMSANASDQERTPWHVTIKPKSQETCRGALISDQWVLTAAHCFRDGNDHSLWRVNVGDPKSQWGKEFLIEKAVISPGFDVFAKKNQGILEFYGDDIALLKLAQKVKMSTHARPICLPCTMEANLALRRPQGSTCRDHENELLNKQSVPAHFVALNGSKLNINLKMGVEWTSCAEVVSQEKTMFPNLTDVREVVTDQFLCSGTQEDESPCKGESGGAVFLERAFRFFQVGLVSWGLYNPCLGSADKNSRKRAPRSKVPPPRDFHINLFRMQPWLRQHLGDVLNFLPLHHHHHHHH

human C2 K457A = biological target: T3, human C2 K457A (human, UniProt P06681 21-752)
T3 sequence: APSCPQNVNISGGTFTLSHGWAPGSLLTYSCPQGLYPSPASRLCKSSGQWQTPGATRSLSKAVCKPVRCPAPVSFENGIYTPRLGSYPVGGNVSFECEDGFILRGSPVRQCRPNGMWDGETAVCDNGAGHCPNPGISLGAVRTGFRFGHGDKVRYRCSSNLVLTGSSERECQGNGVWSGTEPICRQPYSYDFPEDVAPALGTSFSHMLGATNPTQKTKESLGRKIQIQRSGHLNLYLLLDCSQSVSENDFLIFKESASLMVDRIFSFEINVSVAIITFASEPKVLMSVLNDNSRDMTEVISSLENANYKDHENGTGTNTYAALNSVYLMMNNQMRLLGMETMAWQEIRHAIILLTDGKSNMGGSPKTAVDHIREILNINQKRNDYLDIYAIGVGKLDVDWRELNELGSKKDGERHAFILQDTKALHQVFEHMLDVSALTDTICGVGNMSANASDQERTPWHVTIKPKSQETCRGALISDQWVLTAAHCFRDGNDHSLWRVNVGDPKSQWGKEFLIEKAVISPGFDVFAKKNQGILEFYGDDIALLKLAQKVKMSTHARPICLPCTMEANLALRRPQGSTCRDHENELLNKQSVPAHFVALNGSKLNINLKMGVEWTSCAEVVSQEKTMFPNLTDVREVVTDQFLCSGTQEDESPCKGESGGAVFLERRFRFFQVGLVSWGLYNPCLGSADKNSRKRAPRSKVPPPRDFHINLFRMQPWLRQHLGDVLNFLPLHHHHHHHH

human C2 D419A = biological target: T4, human C2 D419A (human, UniProt P06681 21-752)
T4 sequence: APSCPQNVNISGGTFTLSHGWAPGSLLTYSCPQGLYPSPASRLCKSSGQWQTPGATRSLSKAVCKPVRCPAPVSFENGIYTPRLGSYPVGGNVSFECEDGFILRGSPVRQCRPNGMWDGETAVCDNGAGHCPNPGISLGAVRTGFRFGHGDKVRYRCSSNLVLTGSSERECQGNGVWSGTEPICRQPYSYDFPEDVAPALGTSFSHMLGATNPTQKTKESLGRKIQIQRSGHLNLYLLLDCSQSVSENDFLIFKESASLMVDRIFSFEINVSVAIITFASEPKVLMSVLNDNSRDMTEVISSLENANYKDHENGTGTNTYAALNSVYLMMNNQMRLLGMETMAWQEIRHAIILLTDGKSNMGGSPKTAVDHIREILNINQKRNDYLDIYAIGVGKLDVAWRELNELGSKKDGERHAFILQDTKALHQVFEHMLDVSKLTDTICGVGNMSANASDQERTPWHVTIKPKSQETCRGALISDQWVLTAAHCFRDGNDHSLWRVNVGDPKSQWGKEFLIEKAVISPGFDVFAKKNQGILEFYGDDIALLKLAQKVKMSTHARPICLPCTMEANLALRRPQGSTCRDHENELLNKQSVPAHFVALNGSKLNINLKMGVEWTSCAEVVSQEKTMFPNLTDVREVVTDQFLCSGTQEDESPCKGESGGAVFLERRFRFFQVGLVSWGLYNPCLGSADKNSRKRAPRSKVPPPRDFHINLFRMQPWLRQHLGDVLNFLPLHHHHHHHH

B1: RF16-214 (antibody, V domains shown)
VH: EVQLLESGGGLVQPGGSLRLSCAASGFTFSWYQMMWVRQAPGKGLEWVSRIYPSGGGTAYADSVKGRFTISRDNSKNTLYLQMNSLRAEDTAVYYCARDAGYGDNWGQGTLVTVSS
VL: QSALTQPPSVSVSPGQTASITCSGDKLGEKYASWYQQKAGQSPVMVIYQDRKRPSGIPERFSGSNSGNTATLTISGTQAMDEADYYCQAWDTRAVVFGGGTKLTVLG
B1 showed a Kd (human C2 V465A) of 72.7 nM, a Kd (human C2 R688A) of 96.2 nM and a Kd (human C2 K457A) of 41.8 nM. For the same binder, the Kd (human C2 D419A) was 70.7 nM.

Reference: patent US20220332804A1 (CSL INNOVATION, published 2022)
